Results published in patent US20180311371A1 (Hoffmann-La Roche, published 2018).

Experiments:
[1] = target: T1, human TPBG (trophoblast glycoprotein), full length, cell surface expressed (human, UniProt Q13641 32-420); test: cell-based or functional assay
T1 sequence: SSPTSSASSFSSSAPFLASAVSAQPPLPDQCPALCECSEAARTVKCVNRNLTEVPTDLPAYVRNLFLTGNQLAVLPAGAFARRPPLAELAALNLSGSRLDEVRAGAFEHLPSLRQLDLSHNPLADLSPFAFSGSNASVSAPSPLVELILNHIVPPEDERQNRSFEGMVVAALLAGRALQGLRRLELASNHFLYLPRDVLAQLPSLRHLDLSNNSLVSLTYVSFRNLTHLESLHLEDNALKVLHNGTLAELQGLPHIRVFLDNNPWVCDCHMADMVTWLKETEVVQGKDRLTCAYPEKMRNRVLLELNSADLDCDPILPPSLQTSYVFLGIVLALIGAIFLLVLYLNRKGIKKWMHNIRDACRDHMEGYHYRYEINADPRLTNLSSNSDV

[2] = target: T1, human TPBG (trophoblast glycoprotein), …; test: cell-based or functional assay; remark: listed apart in the source
[3] = target: T1, human TPBG (trophoblast glycoprotein), …; test: flow cytometry on SW620 clone 4 cells; ratio of MFI; replicate 2
[4] = target: T1, human TPBG (trophoblast glycoprotein), …; test: flow cytometry on SW620 clone 4 cells; ratio of MFI; replicate 1
[5] = target: T2, huTPBG (recombinant human TPBG immobilised on the Biacore chip) (human, UniProt Q13641 32-355, limits assumed); test: SPR Biacore T200; huTPBG amine-coupled, Fab injected
T2 construct: also called human TPBG antigen
T2 sequence: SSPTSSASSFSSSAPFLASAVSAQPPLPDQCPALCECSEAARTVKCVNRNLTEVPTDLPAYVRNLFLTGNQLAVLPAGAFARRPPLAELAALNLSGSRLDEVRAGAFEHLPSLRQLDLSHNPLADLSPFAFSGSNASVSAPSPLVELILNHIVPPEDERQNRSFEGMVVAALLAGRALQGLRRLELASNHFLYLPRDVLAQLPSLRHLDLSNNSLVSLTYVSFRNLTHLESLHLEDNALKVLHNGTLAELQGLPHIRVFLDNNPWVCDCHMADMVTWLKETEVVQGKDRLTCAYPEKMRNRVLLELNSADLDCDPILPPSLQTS

B1: anti-TPBG antibody 091, Fab fragment (Fab, V domains shown)
VH: EVHLLESGGGLVHPGGSLRLSCAASGFTFRSDAMHWVRQAPGKGLEWVSGVSGSGGSPYYADSVKGRFTISRDDSKTTLYLQMNSLRAEDTAVYYCATGGSIAGSYYYYPMDVWGQGTTVTVSS
VL: DIQMTQSPSSLSASVGDRVTITCQASQDISNYLNWYQQKPGKAPKLLIYAASTLQIGVPSRFSGSGSGTDFTFTISSLQPEDFATYYCQQANSFPLTFGGGTKVEIK
notes: also called Fab2
[1]
  internalization after 0.5 h, MCF7 cells: 16%
  internalization after 1.0 h, MCF7 cells: 33%
  internalization after 2.0 h, MCF7 cells: 42%
[2]
  EC50 cytotoxicity, Fab-PE sandwich construct, H1975, replicate 1: 0.166 nM
  EC50 cytotoxicity, Fab-PE sandwich construct, H1975, replicate 2: 0.129 nM
  EC50 cytotoxicity, Fab-PE sandwich construct, H1975, replicate 3: 0.182 nM
[3]
  Fold change pH 7.2 vs pH 5.5: 1 fold
[4]
  Fold change pH 7.2 vs pH 5.5: 0.9 fold
[5]
  Kd: 0.0558 nM
  koff: 2.72e-05 s⁻¹
  kon: 487000 M⁻¹ s⁻¹
